The values that follow come from patent US20200216532A1 (Ablynx, published 2020).

Assay in all cases: SPR, interference factor immobilized
A general note: Surface plasmon resonance follows binding to a sensor surface in real time, without labels.

Assay [1] addresses T1, purified interference factor(s), Donor A.
T1 construct: also called interference in serum from Donor A

Assay [2] deals with T2, purified interference factor(s), Donor B.
T2 construct: also called interference in serum from Donor B

In assay [3] the target is T3, purified interference factor(s), Donor C.
T3 construct: also called interference in serum from Donor C

B1: SEQ ID NO: 45 (VHH)
VHH: EVQLVESGGGLVQAGGSLRLSCAASRSIGRLDRMGWYRHRTGEPRELVATITGGSSINYGDFVKGRFTISIDNAKNTVYLQMNNLKPEDTAVYYCNFNKYVTSRDTWGQGTQVTVSS
notes: Ex. 8; no addition
As for B1, the “% of binding of reference (=100%)” value in assay [1] worked out at 0%.

B2: SEQ ID NO: 71 (VHH)
VHH: EVQLVESGGGLVQPGGSLRLSCAASRSIGRLDRMGWYRHRPGEPRELVATITGGSSINYGDSVKGRFTISIDNSKNTVYLQMNSLRPEDTAVYYCNFNKYVTSRDTWGQGTLVTVSG
notes: Ex. 8
As to B2, the entries for the “% of binding of reference (=100%)” value in assay [2], in assay [1] and in assay [3] were 105%, 88% and 87%, respectively.

B3: SEQ ID NO: 68 (VHH)
VHH: EVQLVESGGGLVQAGGSLRLSCAASRSIGRLDRMGWYRHRPGEPRELVATITGGSSINYGDSVKGRFTISIDNSKNTVYLQMNSLRPEDTAVYYCNFNKYVTSRDTWGQGTQVTVSS
notes: Ex. 8
B3: the “% of binding of reference (=100%)” value in assay [2] worked out at 115%; in assay [1], 38%; in assay [3], 49%.

B4: SEQ ID NO: 82 (VHH)
VHH: EVQLVESGGGLVQPGGSLRLSCAASRSIGRLDRMGWYRHRPGEPRELVATITGGSSINYGDSVKGRFTISIDNSKNTVYLQMNSLRAEDTAVYYCNFNKYVTSRDTWGQGTLVTVSS
notes: Ex. 8
B4: the “% of binding of reference (=100%)” value in assay [2] amounted to 80%; in assay [1] it was 96%; in assay [3], 100%.

B5: SEQ ID NO: 65 (VHH)
VHH: EVQLVESGGGLVQAGGSLRLSCAASRSIGRLDRMGWYRHRPGEPRELVATITGGSSINYGDSVKGRFTISIDNSKNTVYLQMNSLRPEDTAVYYCNFNKYVTSRDTWGQGTLVTVSS
notes: Ex. 8
With B5, the “% of binding of reference (=100%)” value in assay [2] is 121%; in assay [1] it was 73%; in assay [3], 64%.

B6: SEQ ID NO: 80 (VHH)
VHH: EVQLVESGGGLVQPGGSLRLSCAASRSIGRLDRMGWYRHRPGEPRELVATITGGSSINYGDSVKGRFTISIDNSKNTVYLQMNSLRPEDTAVYYCNFNKYVTSRDTWGQGTLVQVGG
notes: Ex. 8
B6: the “% of binding of reference (=100%)” value in assay [2] came out at 5%; in assay [1], 65%; in assay [3], 58%.

B7: SEQ ID NO: 85 (VHH)
VHH: EVQLVESGGGSVQPGGSLRLSCAASRSIGRLDRMGWYRHRPGEPRELVATITGGSSINYGDSVKGRFTISIDNSKNTVYLQMNSLRPEDTAVYYCNFNKYVTSRDTWGQGTLVQVGG
notes: Ex. 8
Turning to B7, the “% of binding of reference (=100%)” value turned out to be 5% in assay [2], 46% in assay [1] and 42% in assay [3].

B8: SEQ ID NO: 72 (VHH)
VHH: EVQLVESGGGLVQPGGSLRLSCAASRSIGRLDRMGWYRHRPGEPRELVATITGGSSINYGDSVKGRFTISIDNSKNTVYLQMNSLRPEDTAVYYCNFNKYVTSRDTWGQGTLVTVGG
notes: Ex. 8
B8: the “% of binding of reference (=100%)” value in assay [2] came out at 47%; in assay [1], 70%; in assay [3] it was 56%.

B9: SEQ ID NO: 67 (VHH)
VHH: EVQLVESGGGLVQPGGSLRLSCAASRSIGRLDRMGWYRHRPGEPRELVATITGGSSINYGDSVKGRFTISIDNSKNTVYLQMNSLKPEDTAVYYCNFNKYVTSRDTWGQGTLVTVSS
notes: Ex. 8
Regarding B9, the entries for the “% of binding of reference (=100%)” value in assay [2], in assay [1] and in assay [3] were 117%, 102% and 96%, respectively.

B10: SEQ ID NO: 66 (VHH)
VHH: EVQLVESGGGSVQPGGSLRLSCAASRSIGRLDRMGWYRHRPGEPRELVATITGGSSINYGDSVKGRFTISIDNSKNTVYLQMNSLRPEDTAVYYCNFNKYVTSRDTWGQGTLVTVSS
notes: Ex. 8
Regarding B10, the figures for the “% of binding of reference (=100%)” value in assay [2], in assay [1] and in assay [3] were 29%, 81% and 84%, respectively.

B11: SEQ ID NO: 70 (VHH)
VHH: EVQLVESGGGLVQPGGSLRLSCAASRSIGRLDRMGWYRHRPGEPRELVATITGGSSINYGDSVKGRFTISIDNSKNTVYLQMNSLRPEDTAVYYCNFNKYVTSRDTWGQGTLVQVSS
notes: Ex. 8
Consider B11, for which the “% of binding of reference (=100%)” value in assay [2] worked out at 105%; in assay [1] it was 90%; in assay [3], 98%.

B12: SEQ ID NO: 69 (VHH)
VHH: EVQLVESGGGLVQPGGSLRLSCAASRSIGRLDRMGWYRHRPGEPRELVATITGGSSINYGDSVKGRFTISIDNSKNTVYLQMNSLRPEDTAVYYCNFNKYVTSRDTWGQGTQVTVSS
notes: Ex. 8
With B12, the “% of binding of reference (=100%)” value in assay [2] was determined as 120%; in assay [1], 80%; in assay [3] it was 84%.

B13: SEQ ID NO: 81 (VHH)
VHH: EVQLVESGGGVVQPGGSLRLSCAASRSIGRLDRMGWYRHRPGEPRELVATITGGSSINYGDSVKGRFTISIDNSKNTVYLQMNSLRPEDTAVYYCNFNKYVTSRDTWGQGTLVTVSS
notes: Ex. 8
In the case of B13, the “% of binding of reference (=100%)” value in assay [2] is 50%; in assay [1] it was 94%; in assay [3] it was 89%.

B14: SEQ ID NO: 86 (VHH)
VHH: EVQLVESGGGSVQPGGSLRLSCAASRSIGRLDRMGWYRHRPGEPRELVATITGGSSINYGDSVKGRFTISIDNSKNTVYLQMNSLRPEDTAVYYCNFNKYVTSRDTWGQGTLVQVSS
notes: Ex. 8
For the molecule B14, the “% of binding of reference (=100%)” value is 6% in assay [2], 76% in assay [1] and 86% in assay [3].

B15: SEQ ID NO: 83 (VHH)
VHH: EVQLVESGGGLVQPGGSLRLSCAASRSIGRLDRMGWYRHRPGEPRELVATITGGSSINYGDSVKGRFTISIDNSKNTVYLQMNSLRPEDAAVYYCNFNKYVTSRDTWGQGTLVTVSS
notes: Ex. 8
Take B15: the “% of binding of reference (=100%)” value in assay [2] is 73%; in assay [1], 56%; in assay [3], 61%.

B16: SEQ ID NO: 84 (VHH)
VHH: EVQLVESGGGLVQPGGSLRLSCAASRSIGRLDRMGWYRHRPGEPRELVATITGGSSINYGDSVKGRFTISIDNSKNTVYLQMNSLRPEDTAVYYCNFNKYVTSRDTWGQGTLVTVGS
notes: Ex. 8
On to B16, for which the entries for the “% of binding of reference (=100%)” value in assay [2], in assay [1] and in assay [3] were 50%, 84% and 83%, respectively.

B17: SEQ ID NO: 78 (VHH)
VHH: EVQLVESGGGLVRPGGSLRLSCAASRSIGRLDRMGWYRHRPGEPRELVATITGGSSINYGDSVKGRFTISIDNSKNTVYLQMNSLRPEDTAVYYCNFNKYVTSRDTWGQGTLVTVSS
notes: Ex. 8
As to B17, the “% of binding of reference (=100%)” value in assay [2] is 96%; in assay [1], 96%; in assay [3] it was 100%.

B18: SEQ ID NO: 38 (VHH)
chain: EVQLVESGGGLVQPGGSLRLSCAASGFTFSSYAMSWVRQAPGKGLEWVSGIKSSGDSTRYAGSVKGRFTISRDNAKNTLYLQMNSLRPEDTAVYYCAKSRVSRTGLYTYDNRGQGTLVTVSSGGGGSGGGGSGGGGSGGGGSEVQLVESGGGLVQPGGSLRLSCAASGRTFNNYAMGWFRQAPGKEREFVAAITRSGVRSGVSAIYGDSVKDRFTISRDNAKNTLYLQMNSLRPEDTAVYYCAASAIGSGALRRFEYDYSGQGTLVTVSSA
notes: Ex. 8
Turning to B18, the “% of binding of reference (=100%)” value in assay [2] was 25%; in assay [1] it was 9%; in assay [3], 7%.

B19: SEQ ID NO: 48 (VHH)
VHH: EVQLVESGGGLVQPGGSLRLSCIASGLPFSTKSMGWFRQAPGKEREFVARISPGGTSRYYGDFVKGRFAISRDNAKNTTWLQMNSLKAEDTAVYYCASGERSTYIGSNYYRTNEYDYWGTGTQVTVSS
notes: Ex. 8
With B19, the “% of binding of reference (=100%)” value in assay [1] is 0%.

B20: SEQ ID NO: 49 (VHH)
VHH: EVQLLESGGGLVQPGGSLRLSCAASGLPFSTKSMGWFRQAPGKGREFVSRISPGGTSRYYGDFVKGRFTISRDNSKNTLYLQMNSLRAEDTAVYYCASGERSTYIGSNYYRTNEYDYWGQGTLVTVSS
notes: Ex. 8; V5L, I23A, E44G, A49S, A68T, A74S, T78L, W79Y, K83R, T110Q, Q108L
Regarding B20, the “% of binding of reference (=100%)” value in assay [1] came to 0%.

B21: SEQ ID NO: 43 (VHH)
chain: DVQLVESGGGLVQPGGSLRLSCAASGFILDYYAIGWFRQAPGKEREGVLCIDASDDITYYADSVKGRFTISRDNSKNTVYLQMNSLRPEDTAVYYCATPIGLSSSCLLEYDYDYWGQGTLVTVSSGGGGSGGGSEVQLLESGGGLVQPGGSLRLSCAASGFTFRSFGMSWVRQAPGKGPEWVSSISGSGSDTLYADSVKGRFTISRDNSKNTLYLQMNSLRPEDTAVYYCTIGGSLSRSSQGTLVTVSSA
notes: Ex. 8
As for B21, the “% of binding of reference (=100%)” value in assay [2] stood at 20%; in assay [1], 3%.

B22: SEQ ID NO: 42 (VHH)
chain: EVQLVESGGGLVQPGGSLRLSCAASGRTFSYNPMGWFRQAPGKGRELVAAISRTGGSTYYPDSVEGRFTISRDNAKRMVYLQMNSLRAEDTAVYYCAAAGVRAEDGRVRTLPSEYTFWGQGTQVTVSSAAAEVQLVESGGGLVQPGGSLRLSCAASGRTFSYNPMGWFRQAPGKGRELVAAISRTGGSTYYPDSVEGRFTISRDNAKRMVYLQMNSLRAEDTAVYYCAAAGVRAEDGRVRTLPSEYTFWGQGTQVTVSSA
notes: Ex. 8
For B22, the “% of binding of reference (=100%)” value in assay [2] was 4%; in assay [1], 1%.

B23: SEQ ID NO: 47 (VHH)
VHH: EVQLVESGGGLVQPGGSLRLSCAASGSVFKINVMAWYRQAPGKGRELVAGIISGGSTSYADSVKGRFTISRDNAKNTLYLQMNSLRPEDTAVYYCAFITTESDYDLGRRYWGQGTLVTVSS
notes: Ex. 8
On to B23, for which, in assay [1], the “% of binding of reference (=100%)” value is 1%.
